From paper PMC4786428, “Recombinational branch migration by the RadA/Sms paralog of RecA in Escherichia coli”

Target: T1, RadA S372A (Escherichia coli, UniProt P24554 1-460, S372A)
T1 sequence: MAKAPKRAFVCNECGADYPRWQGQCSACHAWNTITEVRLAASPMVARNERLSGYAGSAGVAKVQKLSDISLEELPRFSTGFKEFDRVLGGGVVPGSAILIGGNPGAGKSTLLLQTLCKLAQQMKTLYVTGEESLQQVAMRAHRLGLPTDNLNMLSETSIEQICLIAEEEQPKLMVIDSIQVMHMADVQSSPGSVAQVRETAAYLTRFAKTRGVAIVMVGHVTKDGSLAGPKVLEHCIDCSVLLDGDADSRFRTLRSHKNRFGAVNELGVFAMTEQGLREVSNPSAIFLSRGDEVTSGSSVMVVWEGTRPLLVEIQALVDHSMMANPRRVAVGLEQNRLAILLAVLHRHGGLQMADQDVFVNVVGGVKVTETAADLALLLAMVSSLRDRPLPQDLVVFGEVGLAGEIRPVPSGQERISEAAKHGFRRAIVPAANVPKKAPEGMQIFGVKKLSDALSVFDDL
Test: EMSA; 1 mM ADP; retains DNA binding; 50 mM Tris-HCl pH 7.5, 10 mM MgCl2, 0.1 mM EDTA, 75 mM NaCl, 5 mM DTT, 100 ug/ml BSA, 1 mM nucleotide, 100 fmol DNA, 37 C for 20-30 min; 6% TBE polyacrylamide gel at room temperature
Conditions: protein: recombinant; tags: eXact tag cleaved; 2 extra N-terminal residues Thr-Ser remain; chain copies: 6

B1: poly(dT)30 (ssDNA)
DNA: TTTTTTTTTTTTTTTTTTTTTTTTTTTTTT
  binding result: binds
